Test results reported in US20240101687A1.

Columns and labels:
[1] = molecular target: human IGF1R on cells (human) (UniProt P08069); assay: FACS on BT474 cells (FL1-H), anti-human FITC; MFI of 2nd Ab only 1.93, untreated 1.8
[2] = molecular target: human IGF1R on cells (human) (UniProt P08069); assay: FACS on MCF-7 cells (FL1-H), anti-human FITC; MFI of 2nd Ab only 4.53, untreated 2.51
[3] = molecular target: human IGF1R on cells (human) (UniProt P08069); assay: FACS on JIMT-1 cells (FL1-H), anti-human FITC; MFI of 2nd Ab only 1.89, untreated 1.36

Chain of IMC-A12 (antibody) (VH): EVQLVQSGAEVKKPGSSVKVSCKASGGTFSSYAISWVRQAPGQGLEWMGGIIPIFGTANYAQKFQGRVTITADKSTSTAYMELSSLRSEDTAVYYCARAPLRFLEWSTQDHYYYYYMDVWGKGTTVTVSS
Chain of IMC-A12 (antibody) (VL): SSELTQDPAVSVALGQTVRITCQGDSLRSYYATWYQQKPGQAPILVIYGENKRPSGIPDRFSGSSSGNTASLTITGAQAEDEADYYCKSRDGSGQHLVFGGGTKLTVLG

IMC-A12 (antibody)
MFI [1]: 18.3
MFI [2]: 40.1
MFI [3]: 23
